Reference: the Human Domainome abundance scans (Beltran et al. 2025)
± gives the uncertainty stated by the source.

B1: Protein maelstrom homolog, residues 3 to 71; numbered along this chain, Q96JY0 (parent)
chain: NRKASRNAYYFFVQEKIPELRRRGLPVARVADAIPYCSSDWALLREEEKEKYAEMAREWRAAQGKDPGP

Variants of: B1
Assay: abundance fitness (aPCA) (normalised: wild type 0, dead -1); higher = more abundant; growth selection in yeast, the domain comes from the species named
Settings: Homo sapiens

In order of falling abundance fitness:
1. A56Y  0.208 ± 0.14
2. R57H  0.206 ± 0.14
3. G64V  0.196 ± 0.046
4. S38G  0.193 ± 0.17
5. Y9F  0.18 ± 0.18
6. P69E  0.168 ± 0.31
7. G64Q  0.165 ± 0.073
8. A31K  0.161 ± 0.082
9. R29I  0.139 ± 0.14
10. Q63G  0.126 ± 0.043
11. A56F  0.124 ± 0.13
12. R2E  0.124 ± 0.078
13. G64R  0.116 ± 0.047
14. P69W  0.11 ± 0.48
15. R6T  0.109 ± 0.19
16. L43S  0.094 ± 0.058
17. S39P  0.093 ± 0.089
18. Q63S  0.091 ± 0.057
19. I34F  0.091 ± 0.13
20. A53S  0.082 ± 0.087
21. I34M  0.069 ± 0.12
22. E46P  0.066 ± 0.1
23. L43G  0.064 ± 0.046
24. R6E  0.061 ± 0.17
25. E48D  0.06 ± 0.2
26. R2H  0.058 ± 0.1
27. A42G  0.058 ± 0.051
28. Q63R  0.054 ± 0.042
29. R29G  0.052 ± 0.05
30. R6L  0.046 ± 0.045
31. N7S  0.045 ± 0.071
32. G68H  0.038 ± 0.18
33. R45Q  0.027 ± 0.091
34. D66I  0.024 ± 0.094
35. S39W  0.022 ± 0.067
36. A42K  0.016 ± 0.084
37. A42D  0.015 ± 0.15
38. N7M  0.015 ± 0.071
39. L43V  0.006 ± 0.035
40. Y9E  0.001 ± 0.11
41. A53V  -0.006 ± 0.062
42. D40N  -0.007 ± 0.16
43. R2L  -0.013 ± 0.045
44. G64L  -0.018 ± 0.054
45. P18H  -0.019 ± 0.26
46. R21L  -0.024 ± 0.24
47. V27C  -0.026 ± 0.1
48. K16Q  -0.028 ± 0.13
49. A42H  -0.03 ± 0.12
50. F11Y  -0.036 ± 0.13
51. Y9K  -0.037 ± 0.11
52. D32E  -0.055 ± 0.099
53. A42R  -0.059 ± 0.051
54. R6M  -0.064 ± 0.17
55. I34Y  -0.064 ± 0.26
56. G68Q  -0.064 ± 0.1
57. R45H  -0.072 ± 0.11
58. R57D  -0.072 ± 0.21
59. S5V  -0.087 ± 0.1
60. S5Q  -0.088 ± 0.15
61. A4K  -0.095 ± 0.13
62. R6A  -0.097 ± 0.15
63. A31G  -0.099 ± 0.062
64. R45L  -0.114 ± 0.048
65. K65F  -0.117 ± 0.1
66. K65V  -0.12 ± 0.065
67. S38L  -0.132 ± 0.2
68. R57N  -0.135 ± 0.17
69. I34V  -0.137 ± 0.06
70. E46L  -0.139 ± 0.05
71. R22G  -0.14 ± 0.073
72. K16S  -0.141 ± 0.088
73. P69M  -0.144 ± 0.14
74. A53N  -0.144 ± 0.21
75. D66W  -0.155 ± 0.092
76. V27F  -0.159 ± 0.18
77. S39V  -0.164 ± 0.074
78. I34L  -0.17 ± 0.065
79. S39C  -0.174 ± 0.096
80. K65L  -0.175 ± 0.068
81. A8S  -0.177 ± 0.088
82. I34G  -0.198 ± 0.04
83. S5T  -0.202 ± 0.13
84. E46F  -0.215 ± 0.12
85. R45D  -0.219 ± 0.13
86. P35G  -0.224 ± 0.055
87. L44T  -0.227 ± 0.051
88. R57Y  -0.236 ± 0.23
89. Y9R  -0.239 ± 0.06
90. A4P  -0.246 ± 0.072
91. L44A  -0.254 ± 0.048
92. K65H  -0.259 ± 0.11
93. P67W  -0.263 ± 0.07
94. P35N  -0.266 ± 0.2
95. N7H  -0.267 ± 0.13
96. V30E  -0.272 ± 0.068
97. P69Q  -0.281 ± 0.35
98. C37M  -0.291 ± 0.073
99. G68I  -0.296 ± 0.15
100. A56D  -0.31 ± 0.097
101. P18G  -0.31 ± 0.067
102. G24D  -0.311 ± 0.25
103. E46I  -0.315 ± 0.24
104. I17F  -0.323 ± 0.17
105. Y10M  -0.361 ± 0.09
106. A4N  -0.371 ± 0.32
107. K16T  -0.375 ± 0.13
108. V13I  -0.375 ± 0.36
109. P18A  -0.376 ± 0.067
110. E58T  -0.392 ± 0.11
111. G24A  -0.398 ± 0.2
112. F11I  -0.398 ± 0.17
113. P18S  -0.4 ± 0.071
114. Y10A  -0.403 ± 0.075
115. R6K  -0.419 ± 0.26
116. P67D  -0.43 ± 0.18
117. C37T  -0.434 ± 0.11
118. K51P  -0.453 ± 0.46
119. R21E  -0.496 ± 0.29
120. N7C  -0.497 ± 0.17
121. F11V  -0.502 ± 0.088
122. I17G  -0.503 ± 0.064
123. V27M  -0.511 ± 0.1
124. F11N  -0.512 ± 0.28
125. F12M  -0.53 ± 0.047
126. Y9A  -0.53 ± 0.14
127. N7V  -0.535 ± 0.068
128. Y10S  -0.552 ± 0.1
129. P69I  -0.556 ± 0.39
130. C37G  -0.557 ± 0.043
131. R22W  -0.557 ± 0.09
132. V30N  -0.559 ± 0.24
133. W41P  -0.572 ± 0.1
134. D32R  -0.596 ± 0.1
135. A33C  -0.599 ± 0.15
136. V30R  -0.614 ± 0.053
137. A33T  -0.619 ± 0.11
138. L20T  -0.62 ± 0.11
139. W41K  -0.622 ± 0.078
140. P35S  -0.628 ± 0.1
141. C37Q  -0.636 ± 0.16
142. L20I  -0.636 ± 0.21
143. L20N  -0.642 ± 0.22
144. A56P  -0.651 ± 0.1
145. A33P  -0.654 ± 0.14
146. A56K  -0.671 ± 0.12
147. F11G  -0.694 ± 0.18
148. A33M  -0.707 ± 0.1
149. P35L  -0.713 ± 0.1
150. A33Y  -0.713 ± 0.18
151. R22I  -0.732 ± 0.23
152. V27D  -0.738 ± 0.45
153. F12V  -0.757 ± 0.077
154. G24S  -0.773 ± 0.25
155. P35V  -0.78 ± 0.12
156. R22C  -0.791 ± 0.22
157. D32S  -0.817 ± 0.14
158. F12H  -0.847 ± 0.26
159. F12K  -0.851 ± 0.11
160. D40G  -0.856 ± 0.44
161. F12P  -0.869 ± 0.099
162. W41M  -0.886 ± 0.21
163. D32F  -0.956 ± 0.28
164. W41I  -0.968 ± 0.3
165. L20P  -0.989 ± 0.14
166. N7A  -0.993 ± 0.28
167. R29P  -1.09 ± 0.17
